Source: US20220362357A1, “Synergistic Combinations of Amino Acid Depletion Agent Sensitizers (AADAS) and Amino Acid Depletion Agents (AADA), and Therapeutic Methods of Use Thereof” (STICHTING RADBOUD UNIVERSITAIR MEDISCH CENTRUM, priority 2018, published 2022)

Tests used:
Experiment in all cases: PDX ALL cells co-cultured on hTERT MSCs, ASNase x ibrutinib dilution matrix, microscopy
Assay type in all cases: cell-based, human
PDX m3810 = conditions: ibrutinib B0=0 to B9=100
Experimental: (§1) After 2-4 months these mice developed full blown leukemia with an immunophenotype and genetic composition that in the large majority of cases is identical to the original material at the time of injection.
(§2) Briefly, hTERT immortalized MSCs were seeded in either a 384 wells format (microscopy) or a 96 wells format (7AAD staining) and allowed to settle for 24 hours prior to the addition of ALL xenografts. […] After 3 and 7 days of incubation, cell death was analyzed using microscopy using live cells staining or flowcytometry using 7AAD to discriminate between live or dead cells.

PDX m4136 = conditions: m4136 (3 d), ibrutinib B0=0 to B9=100
Experimental: as §1, §2

PDX m1717 = conditions: m1717 (3 d), ibrutinib B0=0 to B9=100
Experimental: as §1, §2

PDX m764 = conditions: m764 (3 d), ibrutinib B0=0 to B9=100
Experimental: as §1, §2

PDX m1600 = conditions: m1600 (3 d), ibrutinib B0=0 to B9=100
Experimental: as §1, §2

PDX m1095 = conditions: m1095 (3 d), ibrutinib B0=0 to B9=100
Experimental: as §1, §2

B1: ASNase: native E. coli ASNase (NCBI WP_000394140.1), used in the in vitro studies (protein, UniProt P00805 23-348, looked up)
L-asparaginase 2: LPNITILATGGTIAGGGDSATKSNYTVGKVGVENLVNAVPQLKDIANVKGEQVVNIGSQDMNDNVWLTLAKKINTDCDKTDGFVITHGTDTMEETAYFLDLTVKCDKPVVMVGAMRPSTSMSADGPFNLYNAVVTAADKASANRGVLVVMNDTVLDGRDVTKTNTTDVATFKSVNYGPLGYIHNGKIDYQRTPARKHTSDTPFDVSKLNELPKVGIVYNYANASDLPAKALVDAGYDGIVSAGVGNGNLYKSVFDTLATAAKTGTAVVRSSRVPTGATTQDAEVDDAKYGFVASGTLNPQKARVLLQLALTQTKDPQQIQQIFNQY
live cells by automated microscopy (table names no quantity) (PDX m3810; m3810 (3 d), ASNase A1=0.01): 1232
live cells by automated microscopy (table names no quantity) (PDX m3810; m3810 (3 d), ASNase A2=0.03): 2209
live cells by automated microscopy (table names no quantity) (PDX m3810; m3810 (3 d), ASNase A3=0.1): 1405
live cells by automated microscopy (table names no quantity) (PDX m3810; m3810 (3 d), ASNase A4=0.3): 1982
live cells by automated microscopy (table names no quantity) (PDX m3810; m3810 (3 d), ASNase A5=1): 1472
live cells by automated microscopy (table names no quantity) (PDX m3810; m3810 (3 d), ASNase A6=3): 1497
live cells by automated microscopy (table names no quantity) (PDX m3810; m3810 (3 d), ASNase A7=10): 1054
live cells by automated microscopy (table names no quantity) (PDX m3810; m3810 (3 d), ASNase A8=32): 268
live cells by automated microscopy (table names no quantity) (PDX m3810; m3810 (3 d), ASNase A9 (A=100)): 8
live cells by automated microscopy (table names no quantity) (PDX m3810; m3810 (7 d), ASNase A1=0.01): 1776
live cells by automated microscopy (table names no quantity) (PDX m3810; m3810 (7 d), ASNase A2=0.03): 1752
live cells by automated microscopy (table names no quantity) (PDX m3810; m3810 (7 d), ASNase A3=0.1): 1563
live cells by automated microscopy (table names no quantity) (PDX m3810; m3810 (7 d), ASNase A4=0.3): 1519
live cells by automated microscopy (table names no quantity) (PDX m3810; m3810 (7 d), ASNase A5=1): 1136
live cells by automated microscopy (table names no quantity) (PDX m3810; m3810 (7 d), ASNase A6=3): 1251
live cells by automated microscopy (table names no quantity) (PDX m3810; m3810 (7 d), ASNase A7=10): 686
live cells by automated microscopy (table names no quantity) (PDX m3810; m3810 (7 d), ASNase A8=32): 87
live cells by automated microscopy (table names no quantity) (PDX m3810; m3810 (7 d), ASNase A9 (A=100)): 4
live cells by automated microscopy (table names no quantity) (PDX m4136; ASNase A1=0.01): 1992
live cells by automated microscopy (table names no quantity) (PDX m4136; ASNase A2=0.03): 1998
live cells by automated microscopy (table names no quantity) (PDX m4136; ASNase A3=0.1): 1980
live cells by automated microscopy (table names no quantity) (PDX m4136; ASNase A4=0.3): 1892
live cells by automated microscopy (table names no quantity) (PDX m4136; ASNase A5=1): 2157
live cells by automated microscopy (table names no quantity) (PDX m4136; ASNase A6=3): 2652
live cells by automated microscopy (table names no quantity) (PDX m4136; ASNase A7=10): 2136
live cells by automated microscopy (table names no quantity) (PDX m4136; ASNase A8=32): 2172
live cells by automated microscopy (table names no quantity) (PDX m4136; ASNase A9 (A=100)): 39
live cells by automated microscopy (table names no quantity) (PDX m1717; ASNase A1=0.01): 5977
live cells by automated microscopy (table names no quantity) (PDX m1717; ASNase A2=0.03): 6674
live cells by automated microscopy (table names no quantity) (PDX m1717; ASNase A3=0.1): 5155
live cells by automated microscopy (table names no quantity) (PDX m1717; ASNase A4=0.3): 6700
live cells by automated microscopy (table names no quantity) (PDX m1717; ASNase A5=1): 6589
live cells by automated microscopy (table names no quantity) (PDX m1717; ASNase A6=3): 5782
live cells by automated microscopy (table names no quantity) (PDX m1717; ASNase A7=10): 3762
live cells by automated microscopy (table names no quantity) (PDX m1717; ASNase A8=32): 571
live cells by automated microscopy (table names no quantity) (PDX m1717; ASNase A9 (A=100)): 24
live cells by automated microscopy (table names no quantity) (PDX m764; ASNase A1=0.01): 546
live cells by automated microscopy (table names no quantity) (PDX m764; ASNase A2=0.03): 1126
live cells by automated microscopy (table names no quantity) (PDX m764; ASNase A3=0.1): 109
live cells by automated microscopy (table names no quantity) (PDX m764; ASNase A4=0.3): 250
live cells by automated microscopy (table names no quantity) (PDX m764; ASNase A5=1): 915
live cells by automated microscopy (table names no quantity) (PDX m764; ASNase A6=3): 887
live cells by automated microscopy (table names no quantity) (PDX m764; ASNase A7=10): 594
live cells by automated microscopy (table names no quantity) (PDX m764; ASNase A8=32): 157
live cells by automated microscopy (table names no quantity) (PDX m764; ASNase A9 (A=100)): 2
live cells by automated microscopy (table names no quantity) (PDX m1600; ASNase A1=0.01): 4146
live cells by automated microscopy (table names no quantity) (PDX m1600; ASNase A2=0.03): 4603
live cells by automated microscopy (table names no quantity) (PDX m1600; ASNase A3=0.1): 3714
live cells by automated microscopy (table names no quantity) (PDX m1600; ASNase A4=0.3): 3134
live cells by automated microscopy (table names no quantity) (PDX m1600; ASNase A5=1): 4045
live cells by automated microscopy (table names no quantity) (PDX m1600; ASNase A6=3): 4366
live cells by automated microscopy (table names no quantity) (PDX m1600; ASNase A7=10): 3730
live cells by automated microscopy (table names no quantity) (PDX m1600; ASNase A8=32): 487
live cells by automated microscopy (table names no quantity) (PDX m1600; ASNase A9 (A=100)): 4
live cells by automated microscopy (table names no quantity) (PDX m1095; ASNase A1=0.01): 2935
live cells by automated microscopy (table names no quantity) (PDX m1095; ASNase A2=0.03): 2914
live cells by automated microscopy (table names no quantity) (PDX m1095; ASNase A3=0.1): 3089
live cells by automated microscopy (table names no quantity) (PDX m1095; ASNase A4=0.3): 3205
